Experimental data published in the FLAb antibody collection (doi:10.7554/elife.23156).

B1: scFv; the commonest letter at each place (parent)
chain 1: EVKLDETGGGLVQPGRPMKLSCVASGFTFSDYWMNWVRQSPEKGLEWVAQIRNKPYNYETYYSDSVKGRFTISRDDSKSSVYLQMNNLRVEDMGIYYCTGSYYGMDYWGQGTSVTVS
chain 2: DVVMTQTPLSLPVSLGDQASISCRSSQSLVHSNGNTYLRWYLQKPGQSPKVLIYKVSNRFSGVPDRFSGSGSGTDFTLKISRVEAEDLGVYFCSQSTHVPWTFGGGTKLEIK

Key:
[1] = variants of: B1; experiment: Kd (Tite-Seq); conditions: with fluorescein; format: scFv 4-4-20, heavy + light
[2] = variants of: B1; experiment: yeast surface expression (ratio to wild type); higher = more expressed; conditions: format: scFv 4-4-20, heavy + light

Row | Variant | Kd [1] [µM] | yeast surface expression [2]
1 | chain 1 EVKLDETGGGLVQPGRPMKLSCVASGFTFSDYWMNWVRQSPEKGLEWVAQIRNKPYNYETYYSDSVKGRFTISRDDSKSSVYLQMNNLRVEDMGIYYCTGSYCGMDYWAQGTSVTVS chain 2 DVVMTQTPLSLPVSLGDQASISCRSSQSLVHSNGNTYLRWYLQKPGQSPKVLIYKVSNRFSGVPDRFSGSGSGTDFTLKISRVEAEDLGVYFCSQSTHVPWTFGGGTKLEIK [chain 1 Y103C G109A] | ≥ 10 | 0.397
2 | chain 1 EVKLDETGGGLVQPGRPMKLSCVASGFTFSDYWMNWVRQSPEKGLEWVAQIRNKPYNYETYYSDSVKGRFTISRDDSKSSVYLQMNNLRVEDMGIYYCTGSYCGMDYWDQGTSVTVS chain 2 DVVMTQTPLSLPVSLGDQASISCRSSQSLVHSNGNTYLRWYLQKPGQSPKVLIYKVSNRFSGVPDRFSGSGSGTDFTLKISRVEAEDLGVYFCSQSTHVPWTFGGGTKLEIK [chain 1 Y103C G109D] | ≥ 10 | 0.356
3 | chain 1 EVKLDETGGGLVQPGRPMKLSCVASGFTFSDYWMNWVRQSPEKGLEWVAQIRNKPYNYETYYSDSVKGRFTISRDDSKSSVYLQMNNLRVEDMGIYYCTGSYCGMDYWYQGTSVTVS chain 2 DVVMTQTPLSLPVSLGDQASISCRSSQSLVHSNGNTYLRWYLQKPGQSPKVLIYKVSNRFSGVPDRFSGSGSGTDFTLKISRVEAEDLGVYFCSQSTHVPWTFGGGTKLEIK [chain 1 Y103C G109Y] | ≥ 10 | 0.494
4 | chain 1 EVKLDETGGGLVQPGRPMKLSCVASGFTFSDYWMNWVRQSPEKGLEWVAQIRNKPYNYETYYSDSVKGRFTISRDDSKSSVYLQMNNLRVEDMGIYYCTGSYCGGDYWGQGTSVTVS chain 2 DVVMTQTPLSLPVSLGDQASISCRSSQSLVHSNGNTYLRWYLQKPGQSPKVLIYKVSNRFSGVPDRFSGSGSGTDFTLKISRVEAEDLGVYFCSQSTHVPWTFGGGTKLEIK [chain 1 Y103C M105G] | ≥ 10 | 0.611
5 | chain 1 EVKLDETGGGLVQPGRPMKLSCVASGFTFSDYWMNWVRQSPEKGLEWVAQIRNKPYNYETYYSDSVKGRFTISRDDSKSSVYLQMNNLRVEDMGIYYCTGSYDGMRYWGQGTSVTVS chain 2 DVVMTQTPLSLPVSLGDQASISCRSSQSLVHSNGNTYLRWYLQKPGQSPKVLIYKVSNRFSGVPDRFSGSGSGTDFTLKISRVEAEDLGVYFCSQSTHVPWTFGGGTKLEIK [chain 1 Y103D D106R] | ≥ 10 | 0.454
6 | chain 1 EVKLDETGGGLVQPGRPMKLSCVASGFTFSDYWMNWVRQSPEKGLEWVAQIRNKPYNYETYYSDSVKGRFTISRDDSKSSVYLQMNNLRVEDMGIYYCTGSYDYMDYWGQGTSVTVS chain 2 DVVMTQTPLSLPVSLGDQASISCRSSQSLVHSNGNTYLRWYLQKPGQSPKVLIYKVSNRFSGVPDRFSGSGSGTDFTLKISRVEAEDLGVYFCSQSTHVPWTFGGGTKLEIK [chain 1 Y103D G104Y] | ≥ 10 | 0.898
7 | chain 1 EVKLDETGGGLVQPGRPMKLSCVASGFTFSDYWMNWVRQSPEKGLEWVAQIRNKPYNYETYYSDSVKGRFTISRDDSKSSVYLQMNNLRVEDMGIYYCTGSYDGMDYWDQGTSVTVS chain 2 DVVMTQTPLSLPVSLGDQASISCRSSQSLVHSNGNTYLRWYLQKPGQSPKVLIYKVSNRFSGVPDRFSGSGSGTDFTLKISRVEAEDLGVYFCSQSTHVPWTFGGGTKLEIK [chain 1 Y103D G109D] | ≥ 10 | 0.542
8 | chain 1 EVKLDETGGGLVQPGRPMKLSCVASGFTFSDYWMNWVRQSPEKGLEWVAQIRNKPYNYETYYSDSVKGRFTISRDDSKSSVYLQMNNLRVEDMGIYYCTGSYDGMDYWHQGTSVTVS chain 2 DVVMTQTPLSLPVSLGDQASISCRSSQSLVHSNGNTYLRWYLQKPGQSPKVLIYKVSNRFSGVPDRFSGSGSGTDFTLKISRVEAEDLGVYFCSQSTHVPWTFGGGTKLEIK [chain 1 Y103D G109H] | ≥ 10 | 0.441

Stronger by Kd [1], values ahead:

Row | Kd [1] [µM] | Variant | yeast surface expression [2]
9 | 6.27 | chain 1 EVKLDETGGGLVQPGRPMKLSCVASGFTFSDYWMNWVRQSPEKGLEWVAQIRNKPYNYETYYSDSVKGRFTISRDDSKSSVYLQMNNLRVEDMGIYYCTGSYCGIDYWGQGTSVTVS chain 2 DVVMTQTPLSLPVSLGDQASISCRSSQSLVHSNGNTYLRWYLQKPGQSPKVLIYKVSNRFSGVPDRFSGSGSGTDFTLKISRVEAEDLGVYFCSQSTHVPWTFGGGTKLEIK [chain 1 Y103C M105I] | 0.621
10 | 0.02 | chain 1 EVKLDETGGGLVQPGRPMKLSCVASGFTFSDYWMNWVRQSPEKGLEWVAQIRNKPYNYETYYSDSVKGRFTISRDDSKSSVYLQMNNLRVEDMGIYYCTGSYCGLDYWGQGTSVTVS chain 2 DVVMTQTPLSLPVSLGDQASISCRSSQSLVHSNGNTYLRWYLQKPGQSPKVLIYKVSNRFSGVPDRFSGSGSGTDFTLKISRVEAEDLGVYFCSQSTHVPWTFGGGTKLEIK [chain 1 Y103C M105L] | 0.641
11 | 0.495 | chain 1 EVKLDETGGGLVQPGRPMKLSCVASGFTFSDYWMNWVRQSPEKGLEWVAQIRNKPYNYETYYSDSVKGRFTISRDDSKSSVYLQMNNLRVEDMGIYYCTGSYCGMDYNGQGTSVTVS chain 2 DVVMTQTPLSLPVSLGDQASISCRSSQSLVHSNGNTYLRWYLQKPGQSPKVLIYKVSNRFSGVPDRFSGSGSGTDFTLKISRVEAEDLGVYFCSQSTHVPWTFGGGTKLEIK [chain 1 Y103C W108N] | 0.227
12 | 0.0445 | chain 1 EVKLDETGGGLVQPGRPMKLSCVASGFTFSDYWMNWVRQSPEKGLEWVAQIRNKPYNYETYYSDSVKGRFTISRDDSKSSVYLQMNNLRVEDMGIYYCTGSYDGMDYWGQGTSVTVS chain 2 DVVMTQTPLSLPVSLGDQASISCRSSQSLVHSNGNTYLRWYLQKPGQSPKVLIYKVSNRFSGVPDRFSGSGSGTDFTLKISRVEAEDLGVYFCSQSTHVPWTFGGGTKLEIK [chain 1 Y103D] | 1.21
